B1: CPEB3 Ribozyme (parent)
chain: GGGGGCCACAGCAGAAGCGUUCACGUCGCGGCCCCUGUCAGAUUCUGGUGAAUCUGCGAAUUCUGCUGU

Variants of: B1
Experiment: self-cleavage, relative activity (ratio to wild type); higher = more cleavage; co-transcriptional

Row | Variant | self-cleavage
1 | GGGGGCCACAGCAGAAGCGUUCGCGUCGCGGCCCCUGUCAGAUUCUGAUGAAUCUGCGAAUUCUGCUGU [A23G G48A] | 1
2 | GGGGGCCACAGCAGAAGCGUUCGCGUCGCGGCCCCUGUCAGAUUCUGGUAAAUCUGCGAAUUCUGCUGU [A23G G50A] | 0.971
3 | GGGGGCCACAGCAGAAGCGUUCGCGUCGCGGCCCCUGUCAGAUUCUGGUUAAUCUGCGAAUUCUGCUGU [A23G G50U] | 0.971
4 | GGGGGCCACAGCAGAAGCGUUCGCGUCGCGGCCCCUGUCAGAUUCUGGUGAAUCUACGAAUUCUGCUGU [A23G G56A] | 0.953
5 | GGGGGCCACAGCAGAAGCGUUCGCGUCGCGGCCCCUGUCAGAUUCUGGUGAAUCUGCAAAUUCUGCUGU [A23G G58A] | 0.991
6 | GGGGGCCACAGCAGAAGCGUUCGCGUCGCGGCCCCUGUCAGAUUCUGGUGAAUCUGCUAAUUCUGCUGU [A23G G58U] | 0.972
7 | GGGGGCCACAGCAGAAGCGUUCGCGCCGCGGCCCCUGUCAGAUUCUGGUGAAUCUGCGAAUUCUGCUGU [A23G U26C] | 1.03
8 | GGGGGCCACAGCAGAAGCGUUCGCGGCGCGGCCCCUGUCAGAUUCUGGUGAAUCUGCGAAUUCUGCUGU [A23G U26G] | 0.788
9 | GGGGGCCACAGCAGAAGCGUUCGCGUCGCGGCCCCUGUCAGAUUCAGGUGAAUCUGCGAAUUCUGCUGU [A23G U46A] | 1.01
10 | GGGGGCCACAGCAGAAGCGUUCGCGUCGCGGCCCCUGUCAGAUUCGGGUGAAUCUGCGAAUUCUGCUGU [A23G U46G] | 1.01
11 | GGGGGCCACAGCAGAAGCGUUCGCGUCGCGGCCCCUGUCAGAUUCUGGUGAAGCUGCGAAUUCUGCUGU [A23G U53G] | 0.85
12 | GGGGGCCACAGCAGAAGCGUUCGCGUCGCGGCCCCUGUCAGAUUCUGGUGAAUCUGCGAAAUCUGCUGU [A23G U61A] | 0.867
13 | GGGGGCCACAGCAGAAGCGUUCGCGUCGCGGCCCCUGUCAGAUUCUGGUGAAUCUGCGAAGUCUGCUGU [A23G U61G] | 0.734
14 | GGGGGCCACAGCAGAAGCGUUCGCGUCGCGGCCCCUGUCAGAUUCUGGUGAAUCUGCGAAUUCCGCUGU [A23G U64C] | 0.777
15 | GGGGGCCACAGCAGAAGCGUUCGCGUCGCGGCCCCUGUCAGAUUCUGGUGAAUCUGCGAAUUCGGCUGU [A23G U64G] | 0.738
16 | GGGGGCCACAGCAGAAGCGUUCUCGUCGCGGCCCCUGUCAGCUUCUGGUGAAUCUGCGAAUUCUGCUGU [A23U A42C] | 0.992
17 | GGGGGCCACAGCAGAAGCGUUCUCGUCGCGGCCCCUGUCAGGUUCUGGUGAAUCUGCGAAUUCUGCUGU [A23U A42G] | 0.978
18 | GGGGGCCACAGCAGAAGCGUUCUCGUCGCGGCCCCUGUCAGUUUCUGGUGAAUCUGCGAAUUCUGCUGU [A23U A42U] | 1
19 | GGGGGCCACAGCAGAAGCGUUCUCGUCGCGGCCCCUGUCAGAUUCUGGUGGAUCUGCGAAUUCUGCUGU [A23U A51G] | 0.954
20 | GGGGGCCACAGCAGAAGCGUUCUCGUCGCGGCCCCUGUCAGAUUCUGGUGAAUCUGCGCAUUCUGCUGU [A23U A59C] | 0.888

Row | Variant | self-cleavage
21 | GGGGGCCACAGCAGAAGCGUUCUCGUCGCGGCCCCUGUCAGAUUCUGGUGAAUCUGCGUAUUCUGCUGU [A23U A59U] | 0.969
22 | GGGGGCCACAGCAGAAGCGUUCUGGUCGCGGCCCCUGUCAGAUUCUGGUGAAUCUGCGAAUUCUGCUGU [A23U C24G] | 0.556
23 | GGGGGCCACAGCAGAAGCGUUCUUGUCGCGGCCCCUGUCAGAUUCUGGUGAAUCUGCGAAUUCUGCUGU [A23U C24U] | 0.924
24 | GGGGGCCACAGCAGAAGCGUUCUCGUCGCGGACCCUGUCAGAUUCUGGUGAAUCUGCGAAUUCUGCUGU [A23U C32A] | 0.893
25 | GGGGGCCACAGCAGAAGCGUUCUCGUCGCGGCUCCUGUCAGAUUCUGGUGAAUCUGCGAAUUCUGCUGU [A23U C33U] | 0.998
26 | GGGGGCCACAGCAGAAGCGUUCUCGUCGCGGCCUCUGUCAGAUUCUGGUGAAUCUGCGAAUUCUGCUGU [A23U C34U] | 1.01
27 | GGGGGCCACAGCAGAAGCGUUCUCGUCGCGGCCCAUGUCAGAUUCUGGUGAAUCUGCGAAUUCUGCUGU [A23U C35A] | 0.395
28 | GGGGGCCACAGCAGAAGCGUUCUCGUCGCGGCCCCUGUCAGAUUAUGGUGAAUCUGCGAAUUCUGCUGU [A23U C45A] | 0.997
29 | GGGGGCCACAGCAGAAGCGUUCUCGUCGCGGCCCCUGUCAGAUUGUGGUGAAUCUGCGAAUUCUGCUGU [A23U C45G] | 1
30 | GGGGGCCACAGCAGAAGCGUUCUCGUCGCGGCCCCUGUCAGAUUCUGGUGAAUCUGGGAAUUCUGCUGU [A23U C57G] | 0.358
31 | GGGGGCCACAGCAGAAGCGUUCUCGUCGCGGCCCCUGUCAGAUUCUGGUGAAUCUGCGAAUUCUGAUGU [A23U C66A] | 0.886
32 | GGGGGCCACAGCAGAAGCGUUCUCGUCACGGCCCCUGUCAGAUUCUGGUGAAUCUGCGAAUUCUGCUGU [A23U G28A] | 0.226
33 | GGGGGCCACAGCAGAAGCGUUCUCGUCGCGACCCCUGUCAGAUUCUGGUGAAUCUGCGAAUUCUGCUGU [A23U G31A] | 0.977
34 | GGGGGCCACAGCAGAAGCGUUCUCGUCGCGGCCCCUAUCAGAUUCUGGUGAAUCUGCGAAUUCUGCUGU [A23U G37A] | 0.384
35 | GGGGGCCACAGCAGAAGCGUUCUCGUCGCGGCCCCUCUCAGAUUCUGGUGAAUCUGCGAAUUCUGCUGU [A23U G37C] | 0.149
36 | GGGGGCCACAGCAGAAGCGUUCUCGUCGCGGCCCCUUUCAGAUUCUGGUGAAUCUGCGAAUUCUGCUGU [A23U G37U] | 0.347
37 | GGGGGCCACAGCAGAAGCGUUCUCGUCGCGGCCCCUGUCAGAUUCUCGUGAAUCUGCGAAUUCUGCUGU [A23U G47C] | 0.999
38 | GGGGGCCACAGCAGAAGCGUUCUCGUCGCGGCCCCUGUCAGAUUCUGCUGAAUCUGCGAAUUCUGCUGU [A23U G48C] | 1.06
39 | GGGGGCCACAGCAGAAGCGUUCUCGUCGCGGCCCCUGUCAGAUUCUGGUGAAUCUGCAAAUUCUGCUGU [A23U G58A] | 1.02
